Measurements: doi:10.1101/2023.04.07.535877

Assays:
[1] = biological target: glutamine synthetase type I-α from Methanothermococcus thermolithotrophicus (Methanothermococcus thermolithotrophicus (endogenous, DSM 2095)); assay: crystal structure
[2] = biological target: glutamine synthetase type I-α from Methanothermococcus thermolithotrophicus (Methanothermococcus thermolithotrophicus (endogenous, DSM 2095)); assay: native gel or EMSA
[3] = biological target: glutamine synthetase type I-α from Methermicoccus shengliensis (Methermicoccus shengliensis (endogenous, ZC-1, DSM 18856)); assay: crystal structure
[4] = biological target: glutamine synthetase type I-α from Methermicoccus shengliensis (Methermicoccus shengliensis (endogenous, ZC-1, DSM 18856)); assay: native gel or EMSA

| Substance | stoichiometry N [1] | stoichiometry N [2] | stoichiometry N [3] | stoichiometry N [4] |
| --- | --- | --- | --- | --- |
| glutamine synthetase type I-α from Methanothermococcus thermolithotrophicus (enzyme) | 12 | 12 |  |  |
| glutamine synthetase type I-α from Methermicoccus shengliensis (enzyme) |  |  | 12 | 12 |
